According to paper PMC12742849 (Protein & Cell, 2025):

Experiments:
[1] = biological target: enolase, native, from Francisella novicida (Francisella novicida); experiment: cryo-EM structure
[2] = biological target: riboflavin biosynthesis protein D (RibD), native, from Francisella novicida (Francisella novicida); experiment: cryo-EM structure

Row | Substance | stoichiometry N [1] | stoichiometry N [2]
1 | enolase, native, from Francisella novicida (enzyme) | 2 | 
2 | riboflavin biosynthesis protein D (RibD), native, from Francisella novicida (enzyme) |  | 2
